Data on 1 molecule can be found in patent publication US7893027B2, “Treatment of ocular wounds and ulcers” (The Board of Regents of the University of Oklahoma, priority 2002, dated 2011).

Holding throughout (assay type): cell-based, human
One test relates to ICAM-1. Description: Flow cytometry of ICAM-1 expression on HCEC. Particulars: for Upregulation of ICAM-1: 1000 ng/ml. Here is the method: Flow cytometry was used to assess the upregulation of ICAM-1 and VCAM-1 on HCEC in response to CAP37 treatment. HCEC were cultured as described above and treated with CAP37 (0-2000 ng/ml) for 0, 2, 6, 24, 48 and 72 hr. A corresponding culture was left untreated at each time point. Following treatment with CAP37, cells were detached with 5 mM EDTA (pH 7.4, Fisher Scientific), washed twice in PBS and fixed with 0.125% paraformaldehyde (J.T. Baker, Phillipsburg, N.J.) overnight at 4° C. The cells were washed in PBS and then incubated in 0.5% normal goat serum and 0.5% BSA in PBS for 30 min to block non-specific binding sites. For determination of ICAM-1 expression, cells were incubated in the primary antibody (FITC-labeled mouse anti-human ICAM-1, BIOSOURCE, Camarillo, Calif.) at 10^6 cells/10 μl at 4° C. for 1 hr. Cells were washed in PBS and analyzed by flow cytometry (FACSTAR, BECTON DICKINSON, San Jose, Calif.). For detection of VCAM-1 expression, cells were incubated with unlabeled primary antibody (monoclonal mouse anti human VCAM-1, ENDOGEN, Woburn, Mass. at 2 μg/10^6 cells) followed by FITC-labeled goat anti-mouse IgG (PHARMINGEN, San Diego, Calif.) at 5 μg/10^6 cells and incubated at 4° C. for 30 min. The isotype control for these studies was FITC-labeled mouse isotype IgG1 (PHARMINGEN). The positive control used in these studies was TNF-α (5 ng/ml). At least ten thousand cells were analyzed for each sample.
Background: Flow cytometry measures light scatter and fluorescence of single cells or particles in a stream.

The test system of another test is β 1 (CD29). As to the kind of experiment: Flow cytometry of integrin expression on HCEC. Here is the method: (§1) Flow cytometry was used to assess the upregulation of PECAM-1 (CD31), and the integrin molecules β1 (CD29), β2 (CD18), β3 (CD61), β4 (CD104), α1 (CD49a), α2 (CD49b), α3 (CD49c), α4 (CD 49d), and αv (CD51). Human corneal epithelial cells were cultured as above and treated with CAP37 (0-2000 ng/ml) for 0-72 hr. A corresponding culture was left untreated at each time point. Following treatment with CAP37, cells were detached with 0.25% trypsin in 1 mM EDTA (pH 7.4, FISHER SCIENTIFIC, Pittsburgh, Pa.), washed twice in PBS and fixed with 0.125% paraformaldehyde (J.T. BAKER, Phillipsburg, N.J.) overnight at 4° C. The cells were washed in PBS and then incubated in 0.5% normal goat serum and 0.5% bovine serum albumin (BSA) in PBS for 30 min to block non-specific binding sites. Cells were incubated in the primary antibody (at concentrations described below) at 4° C. for 1 hr followed by the secondary antibody (FITC-goat anti-mouse IgG, PHARMINGEN, San Diego, Calif.) at 0.5 μg/10^6 cells and incubated at 4° C. for 30 min. The isotype control for these studies was FITC-labeled mouse isotype IgG1 (PHARMINGEN). The cells were analyzed by flow cytometry (FACS Calibur, BECTON DICKINSON, San Jose, Calif.). At least ten thousand cells were analyzed for each sample.
(§2) The primary antibodies and the concentrations used in the flow cytometry experiments are as follows: mouse anti-human PECAM-1 (CD31) monoclonal antibody clone HEC7 (0.5 μg/10^6 cells, ENDOGEN, Woburn, Mass.), mouse anti-human very late antigen 1α (VLA-1α, or CD49a) monoclonal antibody clone SR84 (0.5 μg/10^6 cells, PHARMINGEN), mouse anti-human VLA-α2 (CD49b) monoclonal antibody clone AK-7 (0.125 μg/10^6 cells, PHARMINGEN), mouse anti-human α3 (CD49c) monoclonal antibody clone C3II.1 (0.125 μg/10^6 cells, PHARMINGEN), mouse anti-human VLA-4 (α4) monoclonal antibody clone 2B4 (1 μg/10^6 cells, R & D systems, Minneapolis, Minn.), mouse anti human α5 (CD49e) monoclonal antibody clone VC5 (0.125 μg/10^6 cells, PHARMINGEN), mouse anti-human β1 (CD29) monoclonal antibody MAR4 (2 μg/10^6 cells, PHARMINGEN), mouse anti human β2 integrin (CD18) monoclonal antibody clone 6.7 (0.5 μg/10^6 cells, PHARMINGEN), mouse anti human αvβ3 (CD51/CD61) monoclonal antibody clone 23C6 (0.5 μg/10^6 cells, PHARMINGEN), and mouse anti human integrin β4 (CD104) monoclonal antibody clone 450-11A (1.0 μg/10^6 cells, PHARMINGEN). A purified mouse IgG1 κ monoclonal immunoglobulin isotype standard (clone MOPC-31C) was used as the isotype matched control in the flow cytometry experiments.

For another test, the system named is β 4 (CD104). Description: Flow cytometry of integrin expression on HCEC. The protocol: as §1, §2
A further test deals with α2 (CD49b; VLA-α2). As to the kind of experiment: Flow cytometry of integrin expression on HCEC. The protocol: as §1, §2
A further test has as its system α4 (CD49d). Description: Flow cytometry of integrin expression on HCEC. The protocol: as §1, §2
The subject of another test is αv β 3 (CD51/CD61). Description: Flow cytometry of integrin expression on HCEC. Here is the method:
as §1, §2

The test system of a further test is α1 (CD49a; VLA-α1). As to the kind of experiment: Flow cytometry of integrin expression on HCEC. The protocol: as §1, §2
A further test relates to α3 (CD49c). As to the kind of experiment: Flow cytometry of integrin expression on HCEC. Here is the method: as §1, §2
A further test deals with β 2 (CD18). As to the kind of experiment: Flow cytometry of integrin expression on HCEC. The protocol: as §1, §2

B1: CAP37: Cationic Antimicrobial Protein of Mr 37 kDa; recombinant protein from human 293 cells, identical to native PMN-derived CAP37 (SEQ ID NO:1) (protein, listed as Homo sapiens)
chain: IVGGRKARPRQFPFLASIQNQGRHFCGGALIHARFVMTAASCFQSQNPGVSTVVLGAYDLRRRERQSRQTFSISSMSENGYDPQQNLNDLMLLQLDREANLTSSVTILPLPLQNATVEAGTRCQVAGWGSQRSGGRLSRFPRFVNVTVTPEDQCRPNNVCTGVLTRRGGICNGDGGTPLVCEGLAHGVASFSLGPCGRGPDFFTRVALFRDWIDGVLNNPGP
In the case of B1, the “Upregulation of ICAM-1” value is listed as “no upregulation of ICAM-1 could be detected” in the test on ICAM-1 (2 hr), “significant upregulation of ICAM-1” in the test with ICAM-1 (6 hr) and “still above the untreated levels” in the test with ICAM-1 (24 hr). In the test with ICAM-1 (1000-2000 ng/ml, TNF-α 5 ng/ml as positive control), the “ICAM-1 levels relative to positive control” value was “comparable to those obtained with the positive control TNF-α”. Also, in the test with ICAM-1 (HCEC, 6 hr, flow cytometry), the “Concentration giving maximum upregulation of ICAM-1” value lay within 1000 to 2000 ng/mL. Further, in the test with ICAM-1 (concentrations between 10 and 500 ng/ml), the ICAM-1 levels entry is “Lower, yet significant levels of ICAM-1”. For the same molecule, the figures for the “Upregulation of CD29 (β1)” value in the test on β 1 (CD29) (6 hr) and in the test with β 1 (CD29) (72 hr) were “clearly significant” and “still significantly elevated above background constitutive levels”, respectively. Moreover, the “Effect of CAP37 on integrin β 1 (CD29)” value in the test with β 1 (CD29) (HCEC, flow cytometry) is “Constitutive expression - significant upregulation”. In addition, the “Effect of CAP37 on integrin β 4 (CD104)” value in the test with β 4 (CD104) is “Constitutive expression - no upregulation”. Besides, the “Effect of CAP37 on integrin α2 (CD49b; VLA-α2)” value with α2 (CD49b; VLA-α2) is reported as “Constitutive expression - no upregulation”. In the test on α4 (CD49d), the “Effect of CAP37 on integrin α4 (CD49d)” value is “Low constitutive expression - no upregulation”. The “Effect of CAP37 on integrin αv β 3 (CD51/CD61)” value in the test on αv β 3 (CD51/CD61) was “Low constitutive expression - no upregulation”. For the same molecule, the “Effect of CAP37 on integrin α1 (CD49a; VLA-α1)” value in the test with α1 (CD49a; VLA-α1) is recorded as “Constitutive expression - no upregulation”. The CD49c protein levels result in the test with α3 (CD49c) (48 and 72 hr) is “returned back to constitutive levels”. Further, the “Level of CD49c protein expression” value in the test with α3 (CD49c) (4 hr to 24 hr) is reported as “sustained through 24 hr”. Further, the “Effect of CAP37 on integrin α3 (CD49c)” value in the test with α3 (CD49c) (HCEC, flow cytometry) is “High constitutive expression - significant”. For the same molecule, the “Time of initial upregulation of CD49c (α3)” value in the test with α3 (CD49c) (HCEC, flow cytometry) is 4 h. Further, in the test with β 2 (CD18), the “Effect of CAP37 on integrin β 2 (CD18)” value is “No constitutive expression - no upregulation”.
